Results reported in patent CN116769729A (UNIV SCIENCE & TECHNOLOGY CHINA, dated 2023).

Experiments:
[1] = molecular target: T1, 小鼠CD150 on mouse spleen cells (mouse, UniProt Q9QUM4 25-343); test: flow cytometry on mouse spleen cells
T1 construct: This is endogenous CD150 on mouse splenocytes in the flow cytometry assay
T1 sequence: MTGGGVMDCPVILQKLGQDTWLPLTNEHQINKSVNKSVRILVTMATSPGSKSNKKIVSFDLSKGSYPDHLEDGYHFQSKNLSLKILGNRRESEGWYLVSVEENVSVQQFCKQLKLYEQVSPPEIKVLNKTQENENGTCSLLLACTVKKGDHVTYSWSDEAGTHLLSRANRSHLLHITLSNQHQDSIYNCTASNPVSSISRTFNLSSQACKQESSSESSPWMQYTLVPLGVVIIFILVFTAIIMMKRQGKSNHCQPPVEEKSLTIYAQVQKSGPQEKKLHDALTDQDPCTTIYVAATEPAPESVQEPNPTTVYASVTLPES

[2] = molecular target: T2, 小鼠CD150胞外段蛋白 (CD150m, hFc removed by TEV cleavage) (mouse, UniProt Q9QUM4 25-242); test: indirect ELISA, CD150 protein coated at 0.25 μg/ml, HRP anti-rat IgG detection
T2 construct: The monomeric protein was used; In the BLI assay the protein was biotinylated (biotin-CD150); also called CD150蛋白; biotin-CD150
T2 sequence: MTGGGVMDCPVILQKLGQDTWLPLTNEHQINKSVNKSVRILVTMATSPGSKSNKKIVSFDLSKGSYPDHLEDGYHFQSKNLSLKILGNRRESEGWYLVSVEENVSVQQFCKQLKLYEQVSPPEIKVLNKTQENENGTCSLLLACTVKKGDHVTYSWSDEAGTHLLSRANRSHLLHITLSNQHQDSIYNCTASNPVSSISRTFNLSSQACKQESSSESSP

B1: 抗CD150单克隆抗体 (produced by rat hybridoma mCD150-mAb-1, CGMCC No.45539) (antibody, V domains shown)
VH: QIQLVQSGPELKKPGESVKISCKASGYTFTDYAMNWVKQAPGNGLKWMGYINTQTGKPTYADDFKQRFVFSLETSASTAYLQINNLNIEDTATYFCTRYNSGNWFAYWGQGTLVTVSS
VL: DIQMTQTPSSMPASLGERVTISCRAGQGISNYLNWYQQKPDGAIKPLIYYTSNLQSGVPSRFSGSGSGTDYSLTISSLEPEDFAMYYCQQYDSSPYTFGAGTKLELK
notes: also called CD150的单抗; 抗CD150抗体
- binding result [1]: binds
- EC50 [2]: 1.13 µg/mL
